# T1: biotinylated CREBL1 (Homo sapiens, UniProt Q99941)
# T1 construct: made in house; host or cells: cell-free: rabbit reticulocyte lysate (TNT Transcription/Translation System, Promega); the unpurified reaction solution was used
# T1 sequence (Q99941 1-703): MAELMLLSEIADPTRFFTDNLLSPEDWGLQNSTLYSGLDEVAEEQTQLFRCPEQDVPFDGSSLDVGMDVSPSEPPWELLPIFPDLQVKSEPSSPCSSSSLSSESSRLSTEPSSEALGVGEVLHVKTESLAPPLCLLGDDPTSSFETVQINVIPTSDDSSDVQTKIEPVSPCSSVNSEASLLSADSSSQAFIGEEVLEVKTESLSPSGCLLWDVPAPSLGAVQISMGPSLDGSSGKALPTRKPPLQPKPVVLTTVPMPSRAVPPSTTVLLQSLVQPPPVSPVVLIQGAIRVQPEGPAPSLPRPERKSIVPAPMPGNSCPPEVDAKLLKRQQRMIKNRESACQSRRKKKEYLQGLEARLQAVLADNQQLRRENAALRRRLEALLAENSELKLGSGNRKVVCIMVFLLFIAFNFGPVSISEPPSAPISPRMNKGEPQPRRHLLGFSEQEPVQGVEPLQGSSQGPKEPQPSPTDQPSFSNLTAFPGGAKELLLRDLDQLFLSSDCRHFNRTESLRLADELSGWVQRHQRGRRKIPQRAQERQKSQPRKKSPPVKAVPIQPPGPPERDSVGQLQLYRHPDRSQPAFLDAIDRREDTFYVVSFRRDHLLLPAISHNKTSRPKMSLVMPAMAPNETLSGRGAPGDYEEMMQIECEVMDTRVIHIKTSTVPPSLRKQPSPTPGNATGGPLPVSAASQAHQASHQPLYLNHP
# Legend:
# casein = test: Casein zymography and protease assay with casein sodium; assay type: biochemical; details: casein zymography and casein sodium protease assay, 37° C., E. coli-expressed His-tagged protein
# biotinylated CREBL1 = target: T1, biotinylated CREBL1; test: In vitro protease assay using biotinylated CREBL1 (degradation pattern); assay type: biochemical; details: 37° C., 4 hours or overnight
# Procedure: More concretely, first, 1.5 μl of the animal cell expression plasmid for CREBL1 (1 μg/μl), 1 μl of 1 mM methionine, 1 μl of biotinylated lysine tRNA (Promega), and 6.5 μl of nuclease free water were added to 40 μl of in vitro translation reaction solution (TNT® Quick Master Mix) to obtain total volume of 50 μl, and reacted for at 30° C. for 1.5 hours. Following this, 12.5 μl of 50 μl reaction solution was sampled, followed by adding with 2×SDS sample buffer and boiling, to detect the expression of biotinylated CREBL1 by western blotting. The detection was carried out using streptavidin HRP (Promega) and Transcend™ Chemiluminescent substrate (Transcend™ Non-Radioactive Translation detection system; Promega). As a result, biotinylation of CREBL1 was confirmed in sample.
# The reaction solution was used as the sample for protease assay. 12.5 μl each of the reaction solution was dispensed to three tubes (Nos. 2 to 4). 25 μl of 50 mM Tris-HCl (pH 7.5), 150 mM NaCl, 0.01% Triton X-100 was added as the control to tube No. 2, 25 μl of 200 μg/m mature HtrA2 solution was added to tube No. 3, and 25 μl of 200 μg/ml mature HtrA2 (S306A) solution was added to tube No. 4, respectively, and mixed. […]
molecule,measurement,setting,value
"mature HtrA2: SEQ ID NO: 4; mature protein generated from HtrA2 precursor by cleavage of N-terminal 133 residues, has protease activity (protein, listed as Homo sapiens, mature HtrA2) MAVPSPPPASPRSQYNFIADVVEKTAPAVVYIEILDRHPFLGREVPISNGSGFVVAADGLIVTNAHVVADRRRVRVRLLSGDTYEAVVTAVDPVADIATLRIQTKEPLPTLPLGRSADVRQGEFVVAMGSPFALQNTITSGIVSSAQRPARDLGLPQTNVEYIQTDAAIDFGNSGGPLVNLDGEVIGVNTMKVTAGISFAIPSDRLREFLHRGEKKNSSSGISGSQRRYIGVMMLTLSPSILAELQLREPSFPDVQHGVLIHKVILGSPAHRAGLRPGDVILAIGEQMVQNAEDVYEAVRTQSQLAVQIRRGRETLTLYVTPEVTE",degradation of casein,casein,degradation of casein by mature HtrA2 was observed
same,"degradation of N-terminal tagged-CREBL1, detecting the Tag",biotinylated CREBL1; anti-Tag antibody,The band of N-terminal tagged-CREBL1 was reduced significantly
same,"degradation of biotinylated CREBL1, detecting the biotin",biotinylated CREBL1; streptavidin HRP,The band of biotinylated CREBL1 was reduced significantly

# From patent US20070196354A1, “Method of treating diabetes by inhibiting degradation of at least one of crebl1, atf6, and hnf-4 alpha by htra” (priority 2003, published 2007)
